The labels stand for the following.
T1: ActR-IIBECD L61P (UniProt P27040 19-137, L61P)
T1 construct: also called ActR-IIBL61P; source: E. coli OrigamiB (DE3), purified (Ni2+-IMAC, thrombin cleavage, anion exchange, RP-HPLC)
T1 sequence (looked up): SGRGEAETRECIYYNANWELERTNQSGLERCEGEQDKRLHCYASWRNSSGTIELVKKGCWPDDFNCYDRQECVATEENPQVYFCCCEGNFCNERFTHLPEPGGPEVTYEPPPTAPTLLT

T2: ActR-IIBECD L61A (UniProt P27040 19-137, L61A)
T2 construct: also called ActR-IIBL61A; source: E. coli OrigamiB (DE3), purified (Ni2+-IMAC, thrombin cleavage, anion exchange, RP-HPLC)
T2 sequence (looked up): T1 sequence (looked up) with P61A

T3: BMPR-II receptor ectodomain (UniProt Q13873 27-150)
T3 construct: BMP type II receptor (BMPR-II), extracellular domain; also called BMPR-IIECD; source: expressed and purified as described earlier [28]
T3 sequence (looked up): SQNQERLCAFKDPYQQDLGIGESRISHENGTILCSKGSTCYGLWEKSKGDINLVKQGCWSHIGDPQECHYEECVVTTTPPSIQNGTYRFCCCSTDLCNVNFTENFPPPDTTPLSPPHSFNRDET

T4: BMP-7 (CHO cells, R&D Systems) (UniProt P18075 293-431, biotin (biotinylated for the biosensor; site not stated))
T4 construct: bone morphogenetic protein 7 (BMP-7), mature ligand; source: bought: R&D Systems (CHO cells)
T4 sequence (looked up): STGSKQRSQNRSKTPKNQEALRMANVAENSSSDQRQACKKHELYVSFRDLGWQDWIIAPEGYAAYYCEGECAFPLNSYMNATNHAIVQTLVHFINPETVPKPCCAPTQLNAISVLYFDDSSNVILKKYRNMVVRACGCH

B1: activin A (Sf9 cells) (ligand, UniProt P08476 311-426, looked up)
chain: GLECDGKVNICCKKQFFVSFKDIGWNDWIIAPSGYHANYCEGECPSHIAGTSGSSLSFHSTVINHYRMRGHSPFANLKSCCVPTKLRPMSMLYYDDGQNIIKKDIQNMIVEECGCS
modifications: biotin (biotinylated for the biosensor; site not stated)
notes: activin A (dimer of inhibin beta A chains), mature ligand; also called Act-A; source: Sf9 cells [59]
B2: ActR-IIBECD wildtype (activin type IIB receptor ectodomain) (receptor, UniProt P27040 19-137, looked up)
chain: T1 sequence (looked up) with P61L
notes: source: E. coli OrigamiB (DE3), purified (Ni2+-IMAC, thrombin cleavage, anion exchange, RP-HPLC)

Holding throughout (conditions): both partners purified
Assay [1] concerns the target T5, ActR-II receptor ectodomain (UniProt P27037 20-135).
T5 construct: activin receptor type II (ActR-II), extracellular domain; also called ActR-IIECD; source: expressed and purified as described earlier [28]
In words: SPR; BIACORE 2000; biotinylated ligand on a streptavidin-modified CM5 chip (about 200 RU); receptor ectodomain as analyte at 1, 2, 3, 5, 10, 20 and 50 uM; HBS500 (10 mM HEPES pH 7.4, 500 mM NaCl, 3.4 mM EDTA, 0.005% P20); apparent KD from the dose dependence of equilibrium binding.

In assay [2] the target is T1, ActR-IIBECD L61P. Described as above.
The target of assay [3] is T2, ActR-IIBECD L61A. The description is as above.
For assay [4], the target named is B2. Described as above.
The target in assay [5] is T3, BMPR-II receptor ectodomain. Described as above.
Assay [6] deals with T5, ActR-II receptor ectodomain. Described as above. The source holds these as a separate data set.
For assay [7], the target named is B2. The description is as above. This is another data set of the same source.
Assay [8] deals with T6, binary complex BMP-2:BMPR-IAECD (UniProt P12643 283-396; P36894 24-152).
T6 construct: bone morphogenetic protein 2 (BMP-2), mature ligand, as m1; BMP type IA receptor (BMPR-IA), extracellular domain, as m25; also called BMP-2 complexed with BMPR-IAECD; BMP-2:(BMPR-IAECD)2; source: formed from the purified proteins and purified as described [58]; copies: 2 + 2
Description: ITC; isothermal titration calorimetry, 25°C; who was titrated is not told.

In assay [9] the target is T4, BMP-7 (CHO cells, R&D Systems). Description: SPR; BIACORE 2000; biotinylated ligand on a streptavidin-modified CM5 chip (about 200 RU); receptor ectodomain as analyte at 1, 2, 3, 5, 10, 20 and 50 uM; HBS500 (10 mM HEPES pH 7.4, 500 mM NaCl, 3.4 mM EDTA, 0.005% P20); apparent KD from the dose dependence of equilibrium binding.
Assay [10] shares this target. The assay is described as above. This is another data set of the same source.

Here are results for two molecules from PMC1802081 (BMC Structural Biology, 2007).

Positions count from the first letter of the chain named.

As for B1, the Kd is approximately 250 nM in assay [1]; 180000 nM in [2]; 2000 nM in assay [3]; 60 nM in assay [4]; 8700 nM in [5]; 230 nM in assay [6]. In addition, the Kd in [7] turned out to be 65 nM.
B2 had a dH in [8] of 14 kcal/mol. The Kd in [9] worked out at 2800 nM; in assay [10], 3600 nM.
